By IC50 is commonly meant the concentration that gives 50% inhibition. Low readings indicate greater potency in that assay, high ones weaker potency in that assay. A word on the Kd: it is the constant that tells how readily two partners part at equilibrium.

Experimental findings from the Immune Epitope Database (IEDB) are described below.

One assay deals with HLA-B*44:03. In words: IEDB peptide-MHC binding, purified MHC/competitive/fluorescence; ≥ and ≤ were set here for values at or beyond the usual limits of such assays. The following applies: source organism: Monodelphis domestica.
Another assay has as its target HLA-B*08:01. Described as above. The following applies: source organism: Monodelphis domestica.
The next assay addresses HLA-B*14:02. The description is as above. The following applies: source organism: Monodelphis domestica.
A further assay deals with HLA-B*35:01. Described as above. The following applies: source organism: Monodelphis domestica.
Another assay addresses HLA-A*31:01. The description is as above. The following applies: source organism: Monodelphis domestica.
In a further assay the target is HLA-A*24:02. The assay is described as above. The following applies: source organism: Monodelphis domestica.
The next assay deals with HLA-A*11:01. Described as above. The following applies: source organism: Monodelphis domestica.
In assay [1] the target is HLA-A*68:02. Described as above. The following applies: source organism: Monodelphis domestica.
Assay [2] deals with HLA-A*29:02. The assay is described as above. The following applies: source organism: Monodelphis domestica.
A further assay concerns the target HLA-A*01:01. Described as above. The following applies: source organism: Monodelphis domestica.
Another assay addresses HLA-B*18:01. Described as above. The following applies: source organism: Monodelphis domestica.
The target of assay [3] is HLA-B*58:01. The description is as above. The following applies: source organism: Monodelphis domestica.
The target of assay [4] is HLA-A*25:01. The description is as above. The following applies: source organism: Monodelphis domestica.
The target in the next assay is HLA-B*07:02. The assay is described as above. The following applies: source organism: Monodelphis domestica.
A further assay addresses HLA-B*40:02. The description is as above.
A further assay concerns the target HLA-B*51:01. Described as above. The following applies: source organism: Monodelphis domestica.
The target of assay [5] is HLA-A*03:01. The assay is described as above. The following applies: source organism: Monodelphis domestica.
The target in another assay is HLA-B*53:01. The assay is described as above. The following applies: source organism: Monodelphis domestica.
Assay [6] addresses HLA-A*02:01. Described as above. The following applies: source organism: Monodelphis domestica.
Another assay concerns the target HLA-B*37:01. Described as above. The following applies: source organism: Monodelphis domestica.
A further assay addresses HLA-B*40:01. In words: IEDB peptide-MHC binding, purified MHC/competitive/fluorescence; filed as Kd, often an IC50 or EC50 that approximates it; ≥ and ≤ were set here for values at or beyond the usual limits of such assays. The following applies: source organism: Bacillus cereus G9241.
The target in the next assay is HLA-A*02:16. The assay is described as above. The following applies: source organism: Giardia lamblia ATCC 50803.
The next assay deals with HLA-A*02:03. The description is as above. The following applies: source organism: Giardia lamblia ATCC 50803.
Another assay addresses HLA-A*26:01. Described as above. The following applies: source organism: Giardia lamblia ATCC 50803.
For the next assay, the target named is HLA-A*02:12. The description is as above. The following applies: source organism: Giardia lamblia ATCC 50803.
Assay [7] addresses HLA-A*68:02. The assay is described as above. The following applies: source organism: Giardia lamblia ATCC 50803.
Assay [8] concerns the target HLA-A*29:02. The assay is described as above. The following applies: source organism: Giardia lamblia ATCC 50803.
The next assay addresses HLA-B*46:01. Described as above. The following applies: source organism: Giardia lamblia ATCC 50803.
In assay [9] the target is HLA-A*25:01. The assay is described as above. The following applies: source organism: Giardia lamblia ATCC 50803.
Another assay concerns the target HLA-A*69:01. The description is as above. The following applies: source organism: Giardia lamblia ATCC 50803.
Assay [10] addresses HLA-A*03:01. The assay is described as above. The following applies: source organism: Giardia lamblia ATCC 50803.
Another assay addresses HLA-B*39:01. Described as above.
Another assay deals with HLA-B*27:03. The assay is described as above. The following applies: source organism: Giardia lamblia ATCC 50803.
Assay [11] deals with HLA-A*02:01. The description is as above. The following applies: source organism: Giardia lamblia ATCC 50803.
The target of a further assay is HLA-A*02:19. The assay is described as above. The following applies: source organism: Giardia lamblia ATCC 50803.
Assay [12] deals with HLA-B*58:01. The description is as above. The following applies: source organism: Escherichia coli F11.
In another assay the target is HLA-A*02:05. In words: IEDB peptide-MHC binding, purified MHC/competitive/radioactivity; filed as Kd, often an IC50 or EC50 that approximates it; ≥ and ≤ were set here for values at or beyond the usual limits of such assays. The following applies: source organism: Homo sapiens.
A further assay deals with HLA-B*44:02. Description: IEDB peptide-MHC binding, purified MHC/competitive/fluorescence; ≥ and ≤ were set here for values at or beyond the usual limits of such assays. The following applies: source organism: Homo sapiens.
For a further assay, the target named is HLA-B*27:05. Description: IEDB peptide-MHC binding, purified MHC/competitive/fluorescence; filed as Kd, often an IC50 or EC50 that approximates it; ≥ and ≤ were set here for values at or beyond the usual limits of such assays. The following applies: source organism: Shigella boydii CDC 3083-94.

Take FLLPILSQIYT: the half-maximal inhibitory concentration (IC50) with HLA-B*44:03 is at least 20 µM; with HLA-B*08:01, at least 20 µM; in the assay with HLA-B*14:02 it was at least 20 µM; with HLA-B*35:01, 0.206 µM; with HLA-A*31:01, at least 20 µM; in the assay with HLA-A*24:02 it was at least 20 µM. The 50% inhibitory concentration (IC50) in the assay with HLA-A*11:01 is at least 20 µM; with HLA-A*68:02 [1], at least 20 µM; with HLA-A*29:02 [2], 0.206 µM; with HLA-A*01:01, at least 20 µM; with HLA-B*18:01, at least 20 µM; with HLA-B*58:01 [3], at least 20 µM. The half-maximal inhibitory concentration (IC50) with HLA-A*25:01 [4], in the assay with HLA-B*07:02, with HLA-B*40:02 (source organism: Monodelphis domestica), with HLA-B*51:01, in the assay with HLA-A*03:01 [5] and with HLA-B*53:01 was at least 20 µM throughout. The IC50 with HLA-A*02:01 [6] was 0.0053 µM; in the assay with HLA-B*37:01, at least 20 µM.

The sequence GEIVLCHVL registered a dissociation constant (Kd) with HLA-B*40:01 of 0.005 µM.

Consider KVSWRWMVY, for which the Kd with HLA-A*02:16 is at least 20 µM; in the assay with HLA-A*02:03, at least 20 µM; in the assay with HLA-A*26:01, at least 20 µM; with HLA-A*02:12, at least 20 µM; with HLA-A*68:02 [7] it was at least 20 µM; in the assay with HLA-A*29:02 [8] it was 0.148 µM. In addition, the Kd with HLA-B*46:01 is at least 20 µM; with HLA-A*25:01 [9] it was at least 20 µM; in the assay with HLA-A*69:01, at least 20 µM; with HLA-A*03:01 [10] it was 0.0043 µM; in the assay with HLA-B*39:01 (source organism: Giardia lamblia ATCC 50803) it was at least 20 µM; with HLA-B*27:03, at least 20 µM. Besides, the equilibrium dissociation constant (Kd) with HLA-A*02:01 [11] and in the assay with HLA-A*02:19 was at least 20 µM throughout.

In the assay with HLA-B*58:01 [12], QHFGLIPQW gave a dissociation constant Kd of 0.143 µM.

With RLFPGLAIKI, the Kd with HLA-A*02:05 is 0.09 µM.

In the case of SDFQVHFL, the results for the half-inhibitory concentration (IC50) with HLA-B*44:02 and with HLA-B*40:02 (source organism: Homo sapiens) were at least 20 µM and 0.0124 µM, respectively.

With WRLVYASAV, the Kd with HLA-B*27:05 was 0.0753 µM; with HLA-B*39:01 (source organism: Shigella boydii CDC 3083-94) it was 0.0118 µM.
